# Test results as given in US20260201008A1, “SECRETIN-DERIVED GLP1R SELECTIVE AGONISTS” (GUBRA A/S, priority 2023, published 2026).
# Where two headings read alike, the source gives them in different places. Numbered stars: 1 amine (or outer) side, 2 acyl side, 3 side chain; on linkers, the order of the positions; unused ones are H or OH. Square brackets hold non-standard residues; d marks the D form. Side chains are listed from the residue outwards. Ends that are not written are not given here. * marks the point of attachment. C20 diacid = O=C(O)CCCCCCCCCCCCCCCCCCC(=O)*; C18 diacid = O=C(O)CCCCCCCCCCCCCCCCC(=O)*; γGlu = O=C(O)[C@H](CCC(=O)[*:2])N[*:1]; AEEA = NCCOCCOCC(=O)O; Aib = CC(C)(N)C(=O)O
# How the values were obtained:
# Assay in all cases: cell-based or functional assay
# [1] = target: T1, human GLP-1 receptor (hGLP1R) (human, UniProt P43220 24-463)
# [2] = target: T2, human secretin receptor (hSCTR) (human, UniProt P47872 23-440)
# [3] = target: T1, human GLP-1 receptor (hGLP1R); remark: listed apart in the source
# [4] = target: T2, human secretin receptor (hSCTR); remark: listed apart in the source
# [5] = target: T1, human GLP-1 receptor (hGLP1R); remark: listed apart in the source
# [6] = target: T2, human secretin receptor (hSCTR); remark: listed apart in the source
# T2 sequence (P47872 23-440): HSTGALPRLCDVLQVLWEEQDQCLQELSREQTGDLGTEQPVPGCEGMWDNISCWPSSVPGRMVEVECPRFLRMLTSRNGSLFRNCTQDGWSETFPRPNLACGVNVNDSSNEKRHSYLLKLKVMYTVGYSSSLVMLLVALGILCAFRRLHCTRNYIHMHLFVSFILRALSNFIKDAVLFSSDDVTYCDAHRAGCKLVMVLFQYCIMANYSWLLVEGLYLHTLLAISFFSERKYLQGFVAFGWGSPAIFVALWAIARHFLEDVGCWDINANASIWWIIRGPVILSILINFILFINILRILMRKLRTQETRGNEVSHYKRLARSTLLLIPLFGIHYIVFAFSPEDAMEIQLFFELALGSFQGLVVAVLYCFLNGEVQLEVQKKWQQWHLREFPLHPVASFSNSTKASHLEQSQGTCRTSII
Binder,PEC50 hGLPR1 [1],pEC50 hSCTR [2],pEC50 hGLPR1 [3],pEC50 hSCTR [4],hGLPR1 EC50 nM (purified peptide) [5] [nM],hGLPR1 PEC50 (purified peptide) [5],hSCTR EC50 nM (purified peptide) [6] [nM],hSCTR pEC50 (purified peptide) [6]
H[Aib]EGTFTSDVSRLK([AEEA-AEEA-γGlu-C20 diacid])EEAALQRFLEHLVEAA-NH2 [SEQ ID NO: 207],11 -log M,8.2 -log M,–,–,–,–,–,–
H[Aib]EGTFTSDVSELK([AEEA-AEEA-γGlu-C20 diacid])ETAA[Aib]QRFLEHLV-NH2 [SEQ ID NO: 45],–,–,10.7 -log M,5.7 -log M,–,–,–,–
H[Aib]EGTFTSDVSYLK([AEEA-AEEA-γGlu-C20 diacid])E[Aib]AATQRFLEHLV-NH2 [SEQ ID NO: 48],–,–,10.6 -log M,6.9 -log M,–,–,–,–
H[Aib]EGTFTSDVSYLK([AEEA-AEEA-γGlu-C20 diacid])EEA[Aib]LQRFLEHLV-NH2 (also: table footnote: C20DA or C18DA) [SEQ ID NO: 203],–,–,10.7 -log M,6.7 -log M,0.017,10.8 -log M,190,6.7 -log M
H[Aib]EGTFTSDVSELK([AEEA-AEEA-γGlu-C20 diacid])EEA[Aib]LQRFLEHLVEAA-NH2 [SEQ ID NO: 210],11 -log M,6.8 -log M,–,–,0.0095,11 -log M,190,6.7 -log M
H[Aib]EGTFTSDVSVLK([AEEA-AEEA-γGlu-C20 diacid])E[Aib]AATQRFLEHLV-NH2 [SEQ ID NO: 49],–,–,10.7 -log M,6.9 -log M,–,–,–,–
H[Aib]EGTFTSDVSFLK([AEEA-AEEA-γGlu-C20 diacid])ETAAAQRFLEHLV-NH2 [SEQ ID NO: 44],–,–,10.5 -log M,5.4 -log M,–,–,–,–
H[Aib]EGTFTSDVSYLK([AEEA-AEEA-γGlu-C20 diacid])EFAA[Aib]QRFLEHLV-NH2 [SEQ ID NO: 46],–,–,10.3 -log M,5.4 -log M,–,–,–,–
H[Aib]EGTFTSDVSELLEEA[Aib]LQRFLEK([AEEA-AEEA-γGlu-C20 diacid])LVEAA-NH2 [SEQ ID NO: 214],10.9 -log M,6.1 -log M,–,–,–,–,–,–
H[Aib]EGTFTSDVSRLK([AEEA-AEEA-γGlu-C20 diacid])EEA[Aib]LQRFLEHLVEAA-NH2 [SEQ ID NO: 208],10.6 -log M,7.6 -log M,–,–,0.022,10.6 -log M,24,7.6 -log M
H[Aib]EGTFTSDVSTLK([AEEA-AEEA-γGlu-C20 diacid])EEA[Aib]LQRFLEHLVEAA-NH2 [SEQ ID NO: 211],11.2 -log M,7.1 -log M,–,–,–,–,–,–
H[Aib]EGTFTSDVSRLK([AEEA-AEEA-γGlu-C18 diacid])EGAAEQRFLQHLVEAA-NH2 [SEQ ID NO: 205],11.1 -log M,5.3 -log M,–,–,–,–,–,–
H[Aib]EGTFTSDVSRLK([AEEA-AEEA-γGlu-C20 diacid])EEA[Aib]AQRFLEHLVEAA-NH2 [SEQ ID NO: 215],11 -log M,6.3 -log M,–,–,–,–,–,–
H[Aib]EGTFTSDVSRLK([AEEA-AEEA-γGlu-C18 diacid])EGAAEQRFLQHLVEAE-NH2 [SEQ ID NO: 204],11 -log M,5.6 -log M,–,–,–,–,–,–
H[Aib]EGTFTSDVSYLK([AEEA-AEEA-γGlu-C20 diacid])EEA[Aib]LQRFLEHLVEAA-NH2 (N-terminus assumed; SMILES CC(C)C[C@H](NC(=O)[C@H](Cc1ccccc1)NC(=O)[C@H](CCCNC(=N)N)NC(=O)[C@H](CCC(N)=O)NC(=O)[C@H](CC(C)C)NC(=O)C(C)(C)NC(=O)[C@H](C)NC(=O)[C@H](CCC(=O)O)NC(=O)[C@H](CCC(=O)O)NC(=O)[C@H](CCCCNC(=O)COCCOCCNC(=O)COCCOCCNC(=O)CC[C@H](NC(=O)CCCCCCCCCCCCCCCCCCC(=O)O)C(=O)O)NC(=O)[C@H](CC(C)C)NC(=O)[C@H](Cc1ccc(O)cc1)NC(=O)[C@H](CO)NC(=O)[C@@H](NC(=O)[C@H](CC(=O)O)NC(=O)[C@H](CO)NC(=O)[C@@H](NC(=O)[C@H](Cc1ccccc1)NC(=O)[C@@H](NC(=O)CNC(=O)[C@H](CCC(=O)O)NC(=O)C(C)(C)NC(=O)[C@@H](N)Cc1c[nH]cn1)[C@@H](C)O)[C@@H](C)O)C(C)C)C(=O)N[C@@H](CCC(=O)O)C(=O)N[C@@H](Cc1c[nH]cn1)C(=O)N[C@@H](CC(C)C)C(=O)N[C@H](C(=O)N[C@@H](CCC(=O)O)C(=O)N[C@@H](C)C(=O)N[C@@H](C)C(N)=O)C(C)C) [SEQ ID NO: 209],10.9 -log M,6.4 -log M,–,–,0.0098,11 -log M,330,6.5 -log M
H[Aib]EGTFTSDVSRLK([AEEA-AEEA-γGlu-C18 diacid])EGAAEQRFLQHLVAAE-NH2 [SEQ ID NO: 206],10.8 -log M,5.3 -log M,–,–,–,–,–,–
H[Aib]EGTFTSDVSYLK([AEEA-AEEA-γGlu-C20 diacid])EEAAQQRFLEHLV-NH2 [SEQ ID NO: 47],–,–,10.8 -log M,6.6 -log M,–,–,–,–
H[Aib]EGTFTSDVSELK([AEEA-AEEA-γGlu-C20 diacid])EEA[Aib]LQRFLEHLV-NH2 [SEQ ID NO: 168],–,–,11.2 -log M,7.3 -log M,0.012,10.9 -log M,100,7 -log M
